Experimental data as given in PMC4006364 (Nature chemical biology, 2014).
Positions count from the first letter of the chain named. Like-named read-outs stand apart in the source and are kept apart here.

How the values were obtained:
[1] = target: T1, AfXPB (Archaeoglobus fulgidus, UniProt O29889); assay: gel mobility shift, inhibition of […]-G4 DNA binding; settings: no Mg2+, pH 7.9, 50 °C; inhibits G4 DNA binding
T1 sequence (O29889 1-452): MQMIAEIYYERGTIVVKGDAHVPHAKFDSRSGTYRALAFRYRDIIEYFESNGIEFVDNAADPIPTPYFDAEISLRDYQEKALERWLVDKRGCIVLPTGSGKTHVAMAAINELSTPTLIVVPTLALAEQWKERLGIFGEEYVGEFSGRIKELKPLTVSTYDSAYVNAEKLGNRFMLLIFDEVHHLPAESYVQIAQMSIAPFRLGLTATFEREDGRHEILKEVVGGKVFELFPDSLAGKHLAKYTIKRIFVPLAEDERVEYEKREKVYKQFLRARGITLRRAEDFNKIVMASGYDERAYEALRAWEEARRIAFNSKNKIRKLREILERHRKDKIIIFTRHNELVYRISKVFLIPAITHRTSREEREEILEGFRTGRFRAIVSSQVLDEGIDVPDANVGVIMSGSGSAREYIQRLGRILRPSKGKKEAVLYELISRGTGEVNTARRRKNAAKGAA

[2] = target: SaXPD (Sulfolobus acidocaldarius, UniProt Q4JC68); settings: 1 mM Mg-ATP, pH 6.5, 45 °C
[3] = target: T1, AfXPB; assay: gel mobility shift, inhibition of […]-G4 DNA binding
[4] = target: T2, XPB (AfXPB) WT (Archaeoglobus fulgidus, UniProt O29889 1-452); assay: EMSA
T2 sequence: T1 sequence (O29889 1-452)

[5] = target: T3, AfXPB K101R (Archaeoglobus fulgidus, UniProt O29889 1-452, K101R); assay: EMSA
T3 sequence: T1 sequence (O29889 1-452) with K101R

[6] = target: T4, XPD (SaXPD) (Sulfolobus acidocaldarius, UniProt Q4JC68 1-551); assay: EMSA
T4 sequence: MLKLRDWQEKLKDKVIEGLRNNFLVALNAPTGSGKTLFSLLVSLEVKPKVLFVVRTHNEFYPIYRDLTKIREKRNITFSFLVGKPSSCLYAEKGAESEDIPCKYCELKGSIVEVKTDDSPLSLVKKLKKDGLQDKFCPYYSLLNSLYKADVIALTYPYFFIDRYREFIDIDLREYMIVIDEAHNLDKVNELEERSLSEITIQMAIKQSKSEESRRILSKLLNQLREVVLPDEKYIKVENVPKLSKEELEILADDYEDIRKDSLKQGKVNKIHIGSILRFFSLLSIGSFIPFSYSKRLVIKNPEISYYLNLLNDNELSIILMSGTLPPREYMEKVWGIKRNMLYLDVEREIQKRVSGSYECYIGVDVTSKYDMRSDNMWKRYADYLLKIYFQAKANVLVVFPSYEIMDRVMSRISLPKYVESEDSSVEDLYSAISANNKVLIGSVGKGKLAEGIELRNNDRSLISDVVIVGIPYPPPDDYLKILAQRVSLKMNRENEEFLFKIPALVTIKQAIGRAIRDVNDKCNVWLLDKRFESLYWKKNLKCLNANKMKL

[7] = target: T2, XPB (AfXPB) WT; assay: EMSA; remark: listed apart in the source

Nc1ncnc2c1ncn2[C@@H]1O[C@H](COP(=O)(O)OP(=O)(O)OP(O)(O)=S)[C@@H](O)[C@H]1O [ATP-γS]
inhibition of G4 DNA binding [1]: ATP-γS similarly inhibited G4 DNA binding, so inhibition did not depend upon ATP hydrolysis

Nc1ncnc2c1ncn2[C@@H]1O[C@H](COP(=O)(O)OP(=O)(O)OP(=O)(O)O)[C@@H](O)[C@H]1O [ATP]
32P-G4 DNA unwinding assay, native gel [2]: robust G4 DNA unwinding activity in the presence of ATP but not ATP-γS

Nc1ncnc2c1ncn2[C@@H]1O[C@H](COP(=O)(O)OP(=O)(O)O)[C@@H](O)[C@H]1O [ADP]
Ki [3]: ~4 mM

AGAATGGAGCAGGTGCGCTGCGAGCAGTG (ssDNA) [ssDNA]
binding result [4]: no binding

B1: dsDNA (dsDNA)
DNA 1: AGAATGGAGCAGGTGCGCTGCGAGCAGTG
DNA 2: CACTGCTCGCAGCGCACCTGCTCCATTCT
binding result [4]: no binding

TGGACCAGACCTAGCAGCTATGGGGGAGCTGGGGAAGGTGGGAATGTGA (structured_DNA) [G4 DNA (TP oligonucleotide)]
binding result [5]: no binding
binding result [6]: binds
binding result [7]: binds
